To fix the notation:
B1: OX-2 membrane glycoprotein (Mus musculus), O54901 (parent)
chain: MGSLVFRRPFCHLSTYSLIWGMAAVALSTAQVEVVTQDERKALHTTASLRCSLKTSQEPLIVTWQKKKAVSPENMVTYSKTHGVVIQPAYKDRINVTELGLWNSSITFWNTTLEDEGCYMCLFNTFGSQKVSGTACLTLYVQPIVHLHYNYFEDHLNITCSATARPAPAISWKGTGTGIENSTESHFHSNGTTSVTSILRVKDPKTQVGKEVICQVLYLGNVIDYKQSLDKGFWFSVPLLLSIVSLVILLVLISILLYWKRHRNQERGESSQGMQRMK
partner: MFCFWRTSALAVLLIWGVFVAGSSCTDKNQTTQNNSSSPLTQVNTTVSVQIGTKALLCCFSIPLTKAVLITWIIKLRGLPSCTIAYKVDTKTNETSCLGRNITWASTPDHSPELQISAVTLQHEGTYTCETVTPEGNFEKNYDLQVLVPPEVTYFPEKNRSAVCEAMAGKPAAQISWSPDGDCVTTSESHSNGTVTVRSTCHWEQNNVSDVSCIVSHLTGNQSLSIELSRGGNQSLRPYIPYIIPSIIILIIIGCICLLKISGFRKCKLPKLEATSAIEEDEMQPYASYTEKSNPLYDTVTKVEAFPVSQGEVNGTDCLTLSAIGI
B2: Cell surface glycoprotein CD200 receptor 4 (Mus musculus), Q6XJV4 (parent)
chain: MHALGRIPTLTLLIFINIFVSGSSCTDENQTIQNDSSSSLTQVNTTMSVQMDKKALLCCFSSPLINAVLITWIIKHRHLPSCTIAYNLDKKTNETSCLGRNITWASTPDHSPELQISAVALQHEGTYTCEIVTPEGNLEKVYDLQVLVPPEVTYFPGKNRTAVCEAMAGKPAAQISWTPDGDCVTKSESHSNGTVTVRSTCHWEQNNVSVVSCLVSHSTGNQSLSIELSQGTMTTPRSLLTILYVKMALLVIILLNVGFAFFQKRNFART
partner: B1 chain

The first test covers variants of B1. The following applies: with mo2r1_mouse Cd200r1, Q9ES57.
For K130E, the “effect of a mutation on the interaction” value was “disrupting interaction strength”. Take L122A: the “effect of a mutation on the interaction” value is recorded as “disrupting interaction strength”. Still for that read-out and setting: under F126A stands “disrupting interaction strength”; under F126D, “disrupting interaction strength”; under L60K, “disrupting interaction strength”.

For I61E, the “effect of a mutation on the interaction” value was “disrupting interaction strength”. The same measure, in the same setting: the result for N124K reads “disrupting interaction strength”; that for N74D, “disrupting interaction strength”; that for N74A, “disrupting interaction strength”.

Variants of B2 are the subject of the next test. The following applies: with ox2g_mouse Cd200, O54901.
Turning to L138F, the “effect of a mutation on the interaction” value is recorded as “increasing interaction strength”. Consider N87K;K90T;L138F, for which the “effect of a mutation on the interaction” value was “increasing interaction strength”. With N87K;K90T, the “effect of a mutation on the interaction” value is recorded as “increasing interaction strength”.

These data come from IntAct's records for PubMed 23602662.
